PMC12279188

Target: KSHV gB653-mut ectodomain (Kaposi's sarcoma-associated herpesvirus (KSHV), strain GK18) (UniProt F5HB81)
Experiment: cryo-EM structure

## KSHV gB653-mut ectodomain (from UniProt F5HB81 27-653) (domain or fragment)
  stoichiometry N: 3
